Consider 19 sequences from a protein production outcome set (Wang et al. 2014).

The data set in a line: label from the status in PepcDB records.

Consider “MNSAALKSCLERENALVVEFLHALEAETEALMDRRAHESLQAAVQRKETLADDLAQLGAERDALLSGAGLASGPAGTDAAAAAHPELGPLWQALQANAAQAREHNQRNGTLIAVNLRHTQESLDALRQAAGTGAAATYDAQGRGKRGYSSA”, for which the protein production result is listed as “not failed”. With “MNSAPFLIFGGILAWLFVYFLRLRRFYAGEFLLGLFIFGIAITIQSIIQKASLVWFNVHAKLLISLWLGFLAGFIQEGIKYIFVKGMTPYKGAMVGLGFGIAEVILLAVVATLAGSSNVPLYLLVASATERFFAVVFHVASTSLLASSNLRIFLGVFTVHGLVDTLASYSQLSRVLNTPKVFLIEAVFGVFALFLLLISLPRIRVEKEEGPKW” the entry was “failed”; with “MNSFYSQEELKKIGFLSVGKNVLISKKASIYNPGVISVGNNVRIDDFCILSGKVTIGSYSHIAAYTALYGGEVGIEMYDFANISSRTIVYAAIDDFSGNALMGPTIPNQYKNVKTGKVILKKHVIIGAHSIIFPNVVIGEGVAVGAMSMVKESLDDWYIYVGVPVRKIKARKRKIVELENEFLKSMNSLEHHHHHH”, “failed”. As for “MNSKFKGIIFMILASAAFATMNLLSKLAVGVNSYQKTFLTNVVATLIVCFIIAYKKGSFFGKKESRKYLLVRGVTGTLSILTNYYALDKMFLSDATILTKLAPFFTIIFSYLLISEKITKKQFTLLIVAFAGSLFVIKPQFSTAIIPSLIGVASAAFAGIAYTMIRVIGDKEDFWTIILSFTSIATIVMLPSMFMNTDNLTLQNILLLVSAGIAFTLGQVALTIAYKNAPASEISMYDYIGLIIAAIYGFMFFKEIPDFLSFTGYIIIVGSSLLNILGNKKTSNKEINEDSSLVSTD”, the protein production entry is reported as “failed”. “MNSKNTICLWYDSAALEAATFYAETFPDSAVLAVHRAPGDYPSGKEGDVLTVEFRVMGIPCLGLNGGPAFRHSEAFSFQVATDDQAETDRLWNAIVDNGGEESACGWCRDKWGISWQITPRVLSEAIASPDRAAARRAFEAMMTMGRIDIATIEKAFKG”: the protein production result is “not failed”.

As for “MNSLPIADLLASAVIAACIVISTMRGVIAEAGSMVAWVVSFFFAKLFAAPFADLAFASFQPRLFALALSFISLFVIACLIQKMLRSLLTGAVSAVGLGFANRILGGVFGALKGVLIVTLLIMLASKTDLPDTEEWQQSYTVPFFVSLSEAVLNHTDNAPESLDDD”, the protein production result was “failed”. As to “MNSPAHALTKPRRRTPRRAVRLARRALVGLTAAAILAGTGMGWVTYHGALDGITTSNALAGESGSVGDTENILIMGLDSRLDQHGNPLPEDVYQALHAGDETVGGYNANVLIVVHLPGDGGPATAFSIPRDDYVDLAGCPSGICKGKVKQAYGFAYQAEMEATESEEEDPATREQKAREAGRKAEIATVRNLLGIPIDHFVEVTLGAFFEIAKAVAPITVCLNDDTSDPYSGADFRKGVQQIDAAQAMAFVRQRRDINDENFTDLDRTRRQQAFLAALVSALRQSGALSSPSKLRGLLDVTKQNVALDAGFDLASFTKRASALTDAPPTLYTLPIKEFGQNAYGEDINIIDVPTIRKIVHDLVSKDDPATTTATPDKPELNGHGATLDVINGSTYTGLAAKLQTTFAADNFTEGQIGDAEALEPATTIDYGPGADAAAHSLATELGVTATPSDWVLADTVRLTIGTDFPGTDYLGADMFTSTTSGASESESYGPSETAELTPITTVAATATGTYTPAPTDLSQMTASGIPCVK”, the protein production result is listed as “failed”.

For the sequence “MNSPETTWTEENSSCALHLHWYALCERKDLVANSGVVAWLDGKQLALFYLPDTAQGEQLFAIDNRDPKSGANVIGRGLTGQIAGELVIASPLYKQHFRLHDGSCIEYPEQRLEVWPVRLNGERVEIAV”, the protein production entry is on record as “failed”. For “MNSPSHLEVREGADINLYNQILIPLYGADIRDSVVQYGLSLAETYDAALHVLYIQDEERTEVESDQVTKQEEWDAAAVIEPVVDQAHSLGLNVIPAVDSGHSPGVIREYAEENDIDLLVHQKPTQTRLARILRRDVSSHIIQNISLPVLTIPDMDPSDPVGELSTSQFTDILVPTDGYDEASVAFKHGLQIAKRYDATLHGLFIISEQSYSSRPGFTWEEVTDSWEQRGTRLLEDITEKAATLDVPVRTTLRFGQPQQEILKYTEVTDIDLVTMGTRGLTGIRRLLQGSVAAQVIEEADYPVLTINRRTAELKKHPYTFLRKTNQNRKSRLY”, the protein production result is on record as “failed”. On to “MNSRAADQLELDGLPGTPPDFYRERQRSRVERYQSPAGAPLQCSVQVQTTQEHPLWTSHVWSGARALADTLCWQPELIAGKTVCELGAGAGLVSIVAFLAGADQVVATDYPDPEILNSLESNIREHTANSCSSETVKRASPKVVPYRWGDSPDSLQRCTGLQRFQVVLLADLLSFHQAHDALLRSVKMLLALPANDPTAVALVTFTHHRPHLAERDLAFFRLVNADGALIAEPWLSPLQMDPMFPDDPGDVCIRGQVHRWRLRWRSAASASANIPAHARNE”, for which the protein production entry is recorded as “not failed”. For the sequence “MNSSIVNAGIDPQVRESLKSFVGEAIDYANTSGKDAAIAKFNDQNGTFVRGNLYVYAFDYNGTTLALPYQPQLIGTDLSGLQDPYGVNYTKVEIFLEHHHHHH”, the protein production entry is reported as “failed”. In the case of “MNSTIIIVGILALVFIFLVFGVSSKPLRFIGKALFHVTLGVALLFIVNVVGTYFDFHLPINLGTATITSLLGLPGVAALVVIKLYIMPR”, the protein production result is recorded as “failed”. Consider “MNTARANRENGAGNIYIGFGDSQLSLMDSHQARPEPVHTVCSKPPLKRPPSREEHLRQRLVKTIHSQRIISGKNRLSNPPRMANPQANSIIGISTYFGPTN”, for which the protein production entry is listed as “failed”. Take “MNTIDIAKSYITAIQTGDHATLGSIISPDVIWHQPGNHQFSGTHRGMAVVGPMLGKMMEVSNGTFAISRADDYMASGDWVAITLEFSGQANGVTLKQAGVDLLRIEDGKIVEVRLFSADQTQEDAFWGR”: the protein production result is “not failed”. With “MNTIKLKKNALFNPEGDTDLRHRRMIGGNTTNLNDFNNMRYKWVSDWYRQAMNNFWIPEEINLTQDTKDYPHLDQAERTAYDKILSFLVFLDSLQSNNLPTISEYITANEVNLCLHIQAFQECVHSQSYSYMLDSICSPEKRNEILYQWKTDGHLLKRNTFIGNCYNEFQESQDGFTLMKTLIANYILEGIYFYSGFMFFYNLSRNGKMSGSAQEIRYINRDENTHLWLFRNIILELKKEEPDLFTPDKVKIYEYMMREGVKQEIEWGQYVIGDNIQGLNRKMIEDYIQYLGNLRWSSLGFGPLYEENHKEPESMHWVSQYSNANMVKTDFFEAKSTAYAKSTALEDDL”, the protein production entry is given as “failed”. “MNTKPVLVILGPTASGKTELAFRIARQTGGEIISADSRQIYRGMDIGTAKPPRWMLDEVKHHFIDKKEIGEPFSAGDFAEQAAEKIRELHQRGITPVVAGGSTLYLEGLLKGFAELPPADPEIRAQLTRELERHGAEALYRRLEALDPEQAKTLDPTKTQRLIRSLEIIEISGTTVTALQSKTPGPPTGINFTVIGLDLPRELLYERINQRTSAMIQAGLEAEARYLFDKFRDEWRSKNLNALATVGYRELFEHFEELHDLDTAVSLIAQHTRNYAKRQLTFFRNRLDVEWVKAPLDEAEIEALVEFFSTRQDDSVPHSPIAIAKKQNA”: the protein production entry is on record as “failed”. Regarding “MNTMEKKTNIHAEDGKQDLLISREFDLPVELLFKAYTEPEFVEQWMGTTVLKLENKKHGSYQFETTDPKGNKHGFNGTIHEFVPDKKITRTFEMDNTPFPIQLEFLVFEKTTETTSKLNMHVIYKSVTDRDNILKLPFAQGINMAHNRIQELPTKLK”, the protein production entry was “failed”. For the sequence “MNTMLNPHYQQIWQTVQLIPQGKVACYGQIADLAGLPGRARLVGKSLGKVPKDGWRGQRVPWFRVINSQGKISFPPGSENFDKQKHHLQDEQVVVIGSRIKLKEFQWKPDLSELLFSLEFLEHHHHHH”, the protein production result is listed as “failed”. With “MNTMVELRKLIVFLLSFTFLLYLLYVGINISKKLRIRRSPFFLMISGVGLITLGTFLDAIDKFIDVGIKNVIAACFTFGAILFVVFIIFLSNNFVCTVSLLYEDANMDKMTGAYNRKGINEIFQRSIAKQNSFYLMLFDLDETKRLNDKYGHAVGDKYIIGASAIIKDTIGNKGFVGRIGGDEFIALLKLENEVDVEKIKKLIKDQFCESFKQYGANISIGYSRFKEDGQEFEEIFQIADKNMYDDKKSNKKNKACF” the entry was “failed”.
